Data on 1 substance can be found in PMC2761088.

This experiment deals with human recombinant Akt1-GST (not treated with H2O2) (human) (UniProt P31749).
Chain of UniProt P31749 (P31749 whole entry): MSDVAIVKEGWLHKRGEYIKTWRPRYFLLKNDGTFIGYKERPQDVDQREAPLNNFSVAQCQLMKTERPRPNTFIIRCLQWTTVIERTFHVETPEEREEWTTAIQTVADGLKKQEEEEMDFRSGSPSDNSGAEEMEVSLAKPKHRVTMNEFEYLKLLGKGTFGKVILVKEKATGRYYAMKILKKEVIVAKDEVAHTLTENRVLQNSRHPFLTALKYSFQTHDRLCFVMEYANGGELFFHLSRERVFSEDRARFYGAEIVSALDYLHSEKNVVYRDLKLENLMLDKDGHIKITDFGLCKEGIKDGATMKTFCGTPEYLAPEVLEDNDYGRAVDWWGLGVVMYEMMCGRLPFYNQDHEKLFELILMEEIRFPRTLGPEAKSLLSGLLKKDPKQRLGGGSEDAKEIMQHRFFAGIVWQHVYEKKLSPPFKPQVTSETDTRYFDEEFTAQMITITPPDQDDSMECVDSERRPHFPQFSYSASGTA

For “PDK1 (PI3K-dependent kinase 1) of NIH/3T3 mitochondrial fractions (from UniProt Q9Z2A0 1-559) (enzyme)”, the Akt1 activity (formation of P-GSK-3 α/β in vitro) of Akt1 immunoprecipitated from mitochondrial extracts of NIH cells treated with low to high H2O2; decreased to 45% of control at high H2O2 worked out at 150%.
